Results reported in patent EP4663661A1 (Hainan Simcere Zaiming Pharmaceutical Co., Ltd., dated 2025).
Read-outs that look alike come from different tables or passages of the source.

T1: his-tagged human CDH6 extracellular region protein (hCDH6 ECD-his) (human, UniProt P55285 54-615)
T1 construct: also called hCDH6-his; Human CDH6-his; not shown: his tag
T1 sequence: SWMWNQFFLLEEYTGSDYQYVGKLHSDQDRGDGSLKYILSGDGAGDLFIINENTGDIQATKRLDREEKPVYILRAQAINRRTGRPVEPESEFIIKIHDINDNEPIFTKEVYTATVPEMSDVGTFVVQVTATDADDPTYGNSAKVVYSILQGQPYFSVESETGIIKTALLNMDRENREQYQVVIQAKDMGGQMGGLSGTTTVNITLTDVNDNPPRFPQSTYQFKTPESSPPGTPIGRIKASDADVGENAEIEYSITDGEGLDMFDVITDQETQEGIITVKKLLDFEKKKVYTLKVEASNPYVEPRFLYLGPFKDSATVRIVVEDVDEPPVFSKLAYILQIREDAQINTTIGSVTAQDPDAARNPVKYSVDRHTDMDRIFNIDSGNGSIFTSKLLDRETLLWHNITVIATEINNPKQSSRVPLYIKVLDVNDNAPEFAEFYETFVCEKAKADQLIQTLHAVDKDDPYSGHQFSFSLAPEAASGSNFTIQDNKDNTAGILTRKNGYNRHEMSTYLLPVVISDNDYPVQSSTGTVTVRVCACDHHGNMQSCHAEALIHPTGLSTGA


What was measured:
[1] = molecular target: human CDH6 protein, full length, on cells (OVCAR3, PA-1) (human) (UniProt P55285); assay: FACS, PA-1 cells
[2] = molecular target: human CDH6 protein, full length, on cells (OVCAR3, PA-1) (human) (UniProt P55285); assay: FACS, OVCAR3 cells
[3] = molecular target: his-tagged human CDH6 extracellular region protein (hCDH6 ECD-his) (human) (UniProt P55285); assay: ELISA, antigen coated
[4] = molecular target: monkey CDH6 protein (cynoCDH6 ECD-his) (monkey (cyno)); assay: ELISA, antigen coated
[5] = molecular target: murine CDH6 protein (mCDH6 ECD-his) (mouse) (UniProt P97326); assay: ELISA, antigen coated
[6] = molecular target: human CDH6 with EC1 removed, on HEK293T cells (HEK293T-hCDH6-EC1 deletion) (human) (UniProt P55285); assay: FACS, HEK293T-hCDH6-EC1 deletion cells
[7] = molecular target: human CDH6 with EC2 removed, on HEK293T cells (HEK293T-hCDH6-EC2 deletion) (human) (UniProt P55285); assay: FACS, HEK293T-hCDH6-EC2 deletion cells
[8] = molecular target: human CDH6 with EC3 removed, on HEK293T cells (HEK293T-hCDH6-EC3 deletion) (human) (UniProt P55285); assay: FACS, HEK293T-hCDH6-EC3 deletion cells
[9] = molecular target: human CDH6 with EC4 removed, on HEK293T cells (HEK293T-hCDH6-EC4 deletion) (human) (UniProt P55285); assay: FACS, HEK293T-hCDH6-EC4 deletion cells
[10] = molecular target: human CDH6 with EC5 removed, on HEK293T cells (HEK293T-hCDH6-EC5 deletion) (human) (UniProt P55285); assay: FACS, HEK293T-hCDH6-EC5 deletion cells
[11] = molecular target: T1, his-tagged human CDH6 extracellular …; assay: SPR Biacore, antibody captured on Protein A chip
[12] = molecular target: T1, his-tagged human CDH6 extracellular …; assay: ELISA, antigen coated
[13] = molecular target: T1, his-tagged human CDH6 extracellular …; assay: ELISA, antigen coated; remark: listed apart in the source

| Max OD450 [5] [OD450] | EC50 [5] [nM] | Max MFI [6] [MFI] | Max MFI [7] [MFI] | Max MFI [8] [MFI] | Max MFI [9] [MFI] | Max MFI [10] [MFI] | Molecule | further results |
| --- | --- | --- | --- | --- | --- | --- | --- | --- |
| 0.1 | – | – | – | – | – | – | hIgG1 (antibody) | Max MFI [1]: 64 MFI; Max MFI [2]: 63 MFI; Max OD450 [3]: 0.07 OD450; Max OD450 [4]: 0.06 OD450 |
| 2.48 | 0.049 | 7210 | 814 | 755 | 26600 | 4040 | CHI-CDH6-14 (antibody, human IgG1, kappa, V domains shown, also called CHI- hCDH6-14) VH: QIQLQQSGPELVKPGTSVKISCKASGYTFTDNYINWVRQRPGQGLEWIGWIYPGTGNSYYNEKFKGKATLTVDTSSSTAYMQFSSLTSEDSAVYLCASSYGDSFDYWGQGTTLTVSS VL: DIQMTQTTSSLSASLGNRVTISCRASQDIRNYLNWYQQKPDGTFKLLISYTSRLHSGVPSRFSGSGSGTDYSLTVSNLEPEDIATYYCQQYSQLPWTFGGGSRLEIKR | Max OD450 [12]: 2.5 OD450; Max OD450 [13]: 2.65 OD450 |
| 2.42 | 0.039 | 23600 | 39100 | 16300 | 20600 | – | NOV0712 (antibody, human IgG1, kappa, V domains shown) VH: QVQLLESGGGLVQPGGSLRLSCAASGFTFSSHGMHWVRQAPGKGLEWVSVISGSGSNTGYADSVKGRFTISRDNSKNTLYLQMNSLRAEDTAVYYCARQWGSYAFDSWGQGTLVTVSS VL: DIQMTQSPSSLSASVGDRVTITCRASQSISSYLNWYQQKPGKAPKLLIYAVSTLQSGVPSRFSGSGSGTDFTLTISSLQPEDFATYYCQQSGTFPPTTFGQGTKVEIKR | – |
| 1.62 | 0.023 | – | – | – | – | – | CHI-CDH6-2 (antibody, human IgG1, kappa, V domains shown) VH: EVQLQQSGPELVKPGASVRISCKASGYTFTDYYMNWVKQSHGKSLEWIGDIDPNNANTTYNQKFKGKATLTVDKSSSTAYMELRSLTSEDSAVYSCASFGYDVEWFGYWGQGTLVTVSA VL: QIVLTQSPALMSASPGEKVTMTCSASSSVSYMYWYQQKPRSSPKPWIYLTSNLASGVPARFSGSGSGTSYSLTISSMEAEDAATYYCQQWSSNPFTFGSGTKLEIKR | – |
| 2.76 | 0.016 | – | – | – | – | – | CHI-CDH6-13 (antibody, human IgG1, kappa, V domains shown) VH: DVQLQESGPGLVKPSQSLSLTCSVTGYSITKDSYWNWIRQFPGSKLEWMGFISYDGSRHYNPSLKNRISITRDTSKNQFFLQLNSVTTEDTATYYCARRDYADYWGQGTTLTVSS VL: QIVLTQSPALMSAFPGEKVTMTCSATSSVSYIYWYQQKPRSSPKPWIYLTSNLASGVPARFSGSGSGTSYSLTINSLEAEDAATYYCQQWSSIPYTFGGGTKLEIKR | – |
| 0.6 | – | 5290 | 8390 | – | 11800 | 1530 | DS-H01L02 (antibody, human IgG1, kappa, V domains shown) VH: EVQLVQSGAEVKKPGASVKVSCKASGYTFTRNFMHWVRQAPGQGLEWMGWIYPGDGETEYAQKFQGRVTITADTSTSTAYMELSSLRSEDTAVYYCARGVYGGFAGGYFDFWGQGTLVTVSS VL: DIQMTQSPSSLSASVGDRVTITCKASQNIYKNLAWYQQKPGKAPKLLIYDANTLQTGVPSRFSGSGSGSDFTLTISSLQPEDFATYFCQQYYSGWAFGQGTKVEIKR | – |
| 2.38 | 0.051 | 11100 | 7550 | 689 | 16800 | 5610 | CHI-CDH6-3 (antibody, human IgG1, kappa, V domains shown) VH: QVQLQQPGAELVKPGASVKLSCKASGYTFTSYWIHWVKQRPGQGLEWIGEINPSNGVTNCNENFKSKATLTVDKSSSTAYMQLSSLTSEDSAVYYCTIPNLLWWYFDVWGAGTTVTVSS VL: DIQMTQSPASLSVSVGETVTITCRASENIYSNLAWYQQKQGKSPQLLVYEATNLADGVPSRFSGSGSGTQYSLKINSLQSEDFGSYYCQHFWGTLWTFGGGTKLEIKR | – |
| 2.32 | 0.035 | 10200 | 75 | 15100 | 22200 | 6540 | CHI-CDH6-4 (antibody, human IgG1, kappa, V domains shown) VH: QVQLQQSGPELVKPGASVKISCKASGYAFSNFWMNWVKQRPGKGLEWIGWIYPGDGDTNYNGKFKDKATLTADKSSSTAYIQLSSLTSEDSAVYFCARLYDAWGFFDYWGQGTTLTVSS VL: QIVLTQSPAIMSASPGQKVTITCSASSSVNYMHWYQQKLGSSPKLWIYDKSKLAPGVPARFSGSGSGTSYSLTISSMEAEDAASYFCHQWSSYPPMTFGGGTKLEIKR | – |

Continued, molecule first:

| Molecule | Max OD450 [5] [OD450] | EC50 [5] [nM] | Max MFI [6] [MFI] | Max MFI [7] [MFI] | Max MFI [8] [MFI] | Max MFI [9] [MFI] | Max MFI [10] [MFI] | further results |
| --- | --- | --- | --- | --- | --- | --- | --- | --- |
| CHI-CDH6-6 (antibody, human IgG1, kappa, V domains shown) VH: EVQLQQSGPELVKPGDSVKMSCKASGYTFTDYYMAWVRQSHRKSLEWIGYIFPNSGGTDYSQKFKGKATLTVDKSSSTVYMELHSLTSEDSAVYYCARELGADYGDYYAMDHWGQGTSVSVSS VL: DIQMTQSPASLSASVGETVTITCRASENIDSYLAWYQQKQGKSPQLLVYSATLLADGVPSRFSGSGSGTQYSLKINSLKSEDVARYYCQHYYRTPPTFGSGTKLEIKR | 1.6 | 0.025 | – | – | – | – | – | – |
| CHI-CDH6-8 (antibody, human IgG1, kappa, V domains shown) VH: EVQLQQSGPELVKPGDSVKMSCKASGYTFTDYYMAWIKQNHGKSLEWIGYIYPNNGGTDYNQKFRGKATLTVDKSSSAAYMELHSLTSEDSAVYYCAREIGTLYGDYYAMDYWGQGTSVTVSS VL: DIQMTQSPASLSASVGETVTITCRASENIDSYLAWYQQKQGKSPQLLVYTATLLADGVPSRFSGSGSGTQYSLKINSLQSEDVARYYCQHYYSTPPTFGSGTKLEIKR | 1.82 | 0.028 | – | – | – | – | – | – |
| CHI-CDH6-7 (antibody, human IgG1, kappa, V domains shown) VH: EVKLVESGGGLVKPGGSLKVSCAASGFTFSDHGMAWVRQAPGKGPEWVAFISNLAYSIYYADTVTGRFTISRENAKNTLYLEMSSLRSEDTAMYYCARVYVKWYFDVWGAGTTVTVSS VL: DIQMTQSPASLSASVGETVTITCRASENIDSYLAWYQQKQGKSPQLLVFAATLLADGVPSRFSGSGSGTQYSLKINSLQSEDVARYYCQHYYSTPLTFGAGTKLELKR | 2.12 | 0.058 | 88 | 13000 | 9060 | 17400 | 1020 | – |
| hCDH6-1-H1L1 (antibody, human IgG1, kappa, V domains shown) VH: EVQLVQSGAEVKKPGSSVKVSCKASGYTFSNYWMHWVRQAPGQGLEWMGDIDPSHSETHYTQKFKDRVTITVDKSTSTAYMELSSLRSEDTAVYYCARGDLGRFDYWGQGTTVTVSS VL: DIVMTQSPDSLAVSLGERATINCRASESVSIHGTHLMHWYQQKPGQPPKLLIYAASNLESGVPDRFSGSGSETDFTLTISSLQAEDVAVYYCQQSFEDPWTFGGGTKVEIKR | – | – | – | – | – | – | – | kon [11]: 2100 M⁻¹ s⁻¹ |
| CHI-CDH6-9 (antibody, human IgG1, kappa, V domains shown) VH: QVQLQQPGAELVKPGASVKLSCKASGYTFTGYWMHWVRQRPGQGLEWIGEINPNNGGTNCNEQFKNKATLTVDKSSSTAYMQLSSLTSEDSAVFYCTISFGNYLFFDVWGAGTTVTVSS VL: DIQMTQSPASLAASVGETITITCQASENIYFSLAWYQQKQGKSPQLLIYNANTLEDGVPSRFVGSGSGTQYSMKINSIQPEDTATYFCDQTYDFPWTFGGGTKLEIKR | 2.77 | 0.022 | – | – | – | – | – | – |
| CHI-CDH6-11 (antibody, human IgG1, kappa, V domains shown) VH: QIQLQQSGPELVKPGASVRISCKASGYTFTDYYITWVKLRPGQGLEWIGWIYPGSVNIKYNEKFKGKATLTVDTSSSTAYMQLNSLTSEDSAVYFCARGGYSWFPYWGQGTLVTVSA VL: NIVMTQSPKSMSMSVGERVTLSCKASENVHTYVSWYQQKPEQSPKLLFYGASTRNTGVPDRFTGSGSATDFTLTISSVQAEDLADYYCGQSYSYPYTFGSGTKLEIKR | 1.77 | 0.04 | – | – | – | – | – | – |
| CHI-CDH6-5 (antibody, human IgG1, kappa, V domains shown) VH: QVQLQQSGAELVRPGTSVKMSCKAAEYTFTNYWIGWVKQRPGHGLEWIGDLYPGGDHANYNEKFEGKATLTADTSSSTAYMQLSSLTSEDSAIYYCARGMLTTGFDSWGQGTTLTVSS VL: DIVMSQSPSSLAVSAGEKVTMSCKSSQSLFNSRTRKNYLAWYQQKPGQSPKLLIYWASTRESGVPDRFTGSGSGTDFTLTISSVQAEDLAVYYCKQSYYLRTFGGGTKLEIKR | 1.92 | 0.046 | 112 | 343 | 12200 | 18700 | 4240 | – |
